Assay results published in US20110189154.

Columns and labels:
[1] = molecular target: 6His-Prx1 (human peroxyredoxin Prx1), superoxidized in the cysteine sulfinic acid form (UniProt Q06830)
[2] = molecular target: 6His-Prx2 (human peroxyredoxin Prx2), superoxidized in the cysteine sulfinic acid form (UniProt P32119)
[3] = molecular target: T1, Tsa1 (S. cerevisiae 2-Cys peroxyredoxin) (UniProt P34760)
T1 sequence: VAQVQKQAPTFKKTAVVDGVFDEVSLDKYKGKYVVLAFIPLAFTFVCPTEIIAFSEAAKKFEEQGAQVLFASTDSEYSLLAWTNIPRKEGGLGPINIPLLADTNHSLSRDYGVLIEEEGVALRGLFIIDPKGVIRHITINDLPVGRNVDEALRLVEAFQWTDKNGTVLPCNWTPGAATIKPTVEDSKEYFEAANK

Chain of hSrx1 (human sulfiredoxin) (chain, as listed by the source): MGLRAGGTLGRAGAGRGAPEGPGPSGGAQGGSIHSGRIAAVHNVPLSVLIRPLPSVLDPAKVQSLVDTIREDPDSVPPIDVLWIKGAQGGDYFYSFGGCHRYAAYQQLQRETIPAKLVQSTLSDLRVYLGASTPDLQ
Chain of 6His-Prx1 (human peroxyredoxin Prx1), superoxidized in the cysteine sulfinic acid form (Q06830 whole entry): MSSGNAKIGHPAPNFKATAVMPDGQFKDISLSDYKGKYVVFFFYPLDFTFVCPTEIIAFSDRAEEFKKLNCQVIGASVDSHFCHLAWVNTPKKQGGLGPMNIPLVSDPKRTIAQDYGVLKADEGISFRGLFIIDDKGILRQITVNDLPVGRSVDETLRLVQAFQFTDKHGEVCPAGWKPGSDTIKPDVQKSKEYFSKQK
Chain of 6His-Prx2 (human peroxyredoxin Prx2), superoxidized in the cysteine sulfinic acid form (P32119 whole entry): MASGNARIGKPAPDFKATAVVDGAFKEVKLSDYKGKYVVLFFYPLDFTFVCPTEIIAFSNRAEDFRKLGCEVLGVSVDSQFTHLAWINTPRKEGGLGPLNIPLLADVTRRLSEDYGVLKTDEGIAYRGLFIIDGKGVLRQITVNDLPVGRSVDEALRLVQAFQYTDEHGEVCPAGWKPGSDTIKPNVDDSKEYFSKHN

Substance: hSrx1 (human sulfiredoxin)
- reduction of superoxidized 6His-Prx1 in vitro [1]: shows the ability of hSrx1, expressed from Baculovirus in High Five cells, to reduce the human peroxyredoxins 6His-Prx1 and 6His-Prx2 superoxidized in the cysteine sulfinic acid form
- reduction of superoxidized 6His-Prx2 in vitro [2]: shows the ability of hSrx1, expressed from Baculovirus in High Five cells, to reduce the human peroxyredoxins 6His-Prx1 and 6His-Prx2 superoxidized in the cysteine sulfinic acid form

Substance: HA-tagged Srx1^C84S (S. cerevisiae Srx1 with Cys84 changed to serine)
- reduction of the Cys-SO2H form of Tsa1 [3]: completely eliminates the formation of the disulfide bridge between Srx1 and Tsa1 and the reduction of the Cys-SO2H form of Tsa1
